test: yeast display, Sf9 membrane polyspecificity reagent, FACS + sequencing; frameworks hold sequencing errors
In short: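 Genes from sorted yeast were amplified by colony PCR, read by MiSeq 2 × 250 sequencing and filtered on CDR length. These cells carried a synthetic nanobody library in Saccharomyces cerevisiae BJ5465 and were sorted by FACS into low and high (top ~1%) gates on anti-HA and streptavidin fluorescence. Polyreactivity is labelled according to the gate of origin.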

Sequence	polyreactivity (PSR sort gate)
QVQLVEKGGGLVQAGGSLRLSCAASGRTFQYYAMGWYRQAPGNERELVAAINQGGGRTYYADSVKGRFTISRDNAKNTVYLQMNSLKPEDTAVYYCAADGLSKFDYWGQGTQVTVSS	low polyreactivity
QVQLVEAGGGLVQAGGSLRLSCAASGGIFSTYTMRWYRQAPGKERELVAAITTGNSTYYADSVKVRFTISRDNAKNTVYLQMNSLKPEDSAVYYCAAFADSRDYYRRLIHDGYDYWGQGTQVTVSS	low polyreactivity
QVQLVESGGGLVQAGGSLRLSCAASGFTFIYYAMGWYRQAPGKERELVAAIRWSGGSTYYADSVKGRFTISRDNAKNTVYLQMNSLKPEDTAVYYCAARAIYKSKYDYWGQGTQVTVSS	high polyreactivity
QVQLVESGVVLVQAGGSLPLSCSASGRIFIHYAMGWYRQAPGKERELVAAISASGGTTNYADSVKGRFTISRDNAKNTVYLQMNSLKPEDTAVYYCAAEGYRSWRGLRSRYYYWGEGTQVTVSS	high polyreactivity
QVQLVESGGGLVQAGGSLRLSCAASGRIFKFYDMGWYREAPGKERELVAAISHAGRTNYADSVKGRFTISRDNAKNTVYLQMNSLKPEDTAVYYCNTDYILVRGVPWYYKLDYWGQGTQVTVSS	high polyreactivity
QVQLVESGGGLVQAGGSLRLSCAASGSIFGGYTMGWYRQAPGKERELVAAISRRGGNTYYADSVKGRFTISRDYAKNTVYLQMNSLKPDDTAVYFCAKRYASTSGYWGQGTQVTVSS	high polyreactivity
QVQLVESGGGLVQAGGSLRLSCAASGSIFENYAMGWYRQAPGKERELVAAITSSGASTYYADSVKGHFTISRDNEKNTVYIQMNILKPEDTAVYYCAADSAFYDEYQEDYWGQGTQVTVSS	low polyreactivity
QVQLVESGGGLVQAGGSLRLSCAASGSIFRGNAMGWYRQAPVKERELVAGINRAGSTKYADSVKGRFTISRDNAKNTVYLQMNSLKPEDTAVYYCAAVRYERGLWSDYWGQGTQVTVSS	high polyreactivity
QVQLVESGGGLVQAGGSLRLSCAASGSISIVYTMGWYRQAPGKERELVATISWSGGNTYYADSVKGRFTISRDYAKNTVYLQMNSLKPEDTAVYYCAARWYYYPLLYDYWGQGTQVTVSS	low polyreactivity
QVQLVESGGGLVQAGGSLRLSCAASGGIFPQYAMGWYRQAPGKERQLVAAISRRGGRTYYADSVKGRFTISRDNAKNTDYLQMNSLKPEDTAVYYCNAGGSSGYDYWGQGTQVTVSS	high polyreactivity
QVQLVESGGGLVQAGGSLRLSCAASGSILYTYAMGWYRQAPGKERELVAAISRSGGSTYYADSVKGRFTISRDTAKNTVYLQMNSLKPEDTAVYYCNAVRYLTRLGRYDYWGQGTQVTVSS	high polyreactivity
QVQLVESVGGLVQAGGTRRLSCDASGRTFGLNVMGWYRHAPGKERELVASIRNIGGSTYYADSVKWRFTISCDNAKNTVYLQMNSLKPEDTAVYYCAADYNLVVQGYDYWGQGTQVTVSS	high polyreactivity
QVQLVESGGGLVQAGGSLRLSCAASGFTFVGNTMGWYRQAPGKERELVAAIRGRDGRTYYADSVKGRFTISRDNAKNTVYLQMNSLKPEDTAVFYCNAVGFVWYFDVYSYFTEIKYDYWGQGTQVTVSS	low polyreactivity
QVQLVESGGGLVQAGGSLRLSCAASGSIFKGYAMGWSRQAPGKERELVASITSSGGSTYYADSVKGRFTISRDNAKNTVYLQMNCLKPEDTAVYYCATDHDSVRVLVSSTSDYDYWGQGTQVTVSS	low polyreactivity
QVQLVESGGGLDQAGGSLRLSCAASGSIFAYYVMGWYRQAKGKERELVAAITSVGSTNYADSVKGRFTISRDNAKNTVYLQMNSLKPEESAVFYCAADQYQARYYYWGQGTQVTVSS	low polyreactivity
QVQLVESGGGLVQAGCSLRLSCDASGRIFVTNAMGWYRQAPGKERELVAANSYRGGRTYYADSVKGRFTISRDNAKNTVYLQMNSLKPEDTAVYYCNAVTRWPFDYWGQGTQVTVSS	high polyreactivity
QVQLVESGGGLVQAGGSLRLSCAASGSTFTPNAMGWYRQAPGKERELVAAITTRGSSTYYADSVKGRFTISRDNAKNTVYLQMNSLKPEDTAVYYCNAGVTFRRYDYWGQGTQVTVSS	high polyreactivity
QVQLVESGGGLVQAGGSLRLSCAASGSTFPGNAMGWYRQAPGKERELVAAITSTGTTYYADSVKGRFTISRDNAKNTVYLQMNSLKPEDTAVYYCNADPSPDPSTFDYWGQGTQVTVSS	low polyreactivity
QVQIVESGGGLVQAGGSLRLSCAASGTFARYAMGWYRQAPRKERELVAAITRRGGNTYYADSVKGRFSISRDNAKNTVYLPMNSQKPEDTAVYYCAILGEDTNGYWGQGTQVTVSS	high polyreactivity
QVQLQESGGGLVQAGGSLRMSCAASGKIFDADIMGWYRQAPGKERELVASNTDGRRTNYADSVKGRYTISRDSEKNTVYLQMNSLKAEDTAEYYCAAIAYPVVPTSFDYDSDYFHWGQGTQVTVSS	high polyreactivity
QVQLVESGGGLVQAGGSLRLSCAASGRIFWINAMGWYRQAPGKERELVATISSGSTSYADSVKGRFTISRDNAKNTVYLQMNSLKPEDTAVYYCAADFVFRWYSYTGRWYSSYDYWGQGTQVTVSS	low polyreactivity
HVQLVESGGGLVQAGGSLRLSCAASGRTFVVNAMGWYRQAPGTEREFVAAISYRGDSTYYAVSVKGRFTFSRDNSKNTVYLQMNSLKPEDTAVYYCAARVLGPGRRYYYWGQGTQVTVSS	high polyreactivity
QVQLVESGGGLVQAGGSLRLSCAASGSIFVVYAMGWYRQPPGKERELVAAIDSGGSTYYADSVKGRFTISRDNAKNTVYLQLNSLKPEDTAVSYCADDGSTWGDYRTYGYWGQGTQVTVSS	low polyreactivity
QVQLVESGGGLVQAGGSLRLSCAASGSTLEYYAMGWYRQAPGKERELVAAITYSGGDTYYADSVKGRFTISRDNAKNTVYLQMNSLKPEDTAVYYCAAEALYYPYETYDYWGQGTQVTVSS	high polyreactivity
QVQLVESGGGLVQAGGSLRLSCAASGLTFYFYAMGWYIQAPGKERELVAAIDWGGGSTYYADSVKGRFTISRDYAKNTVYLQMNSLKPEDTAVYYCAARGYYYNYDVNYWGQGTQVTVSS	low polyreactivity
QVQLVESGGGLVQAGGSLRLSCAATGSIISVNTMGWYRQAPGKERELVATIRTGDSTNYADSVKGRFTISRDNAKYTVYLQMNSLKPEDTAVYYCAAEWSSLNFDYWGQGTQVTVSS	low polyreactivity
QVQLVESGGGLVQAGGSLRLSCAASGRIFSHYAMGWYRQAPGKERELVAAINRSGGSTYYADSVKGRFTISRDNAKNTVYLQMNSLKPEDTAVYYCAATSLRRYGYNYWGQGTQVTVSS	high polyreactivity
QVQLVESGGGLVQAGGSLRLSCAASGFTFRYYAMGWYRQAPGKERELLAAISWSGGSTYYADSVKGRFTISRDNAKNTVYLQMNSLNPEDTAVYYCAADSVFGGRGRYQASRYYYWGQGPQVTVSS	high polyreactivity
QVQLVESGGGLVQAGGSLRLSCAASGRIFYSYAMGWSRQAPGKERELVAAISFSVGSTYYADSVKGRFTISRDNAKNSVYLQMNSLKPEDTAVYYCAASLGFPGYEYWGQGTQVTVSS	low polyreactivity
QVQLVESGGGLVQAGGSLRLSCAASGRIFRYNAMGWYRQAPGKERELVATITSGGNTNYADSVKGRFTISRDNAKNTVYLQMISLKPEDTAVYYCNAAEPQWYDAYDYWGQGTQVTVSS	low polyreactivity

Reference: the nanobody polyreactivity screen of Harvey et al. (2022)
